Source: the nanobody polyreactivity screen of Harvey et al. (2022)

Experiment: yeast display, Sf9 membrane polyspecificity reagent, FACS + sequencing; frameworks hold sequencing errors
Outline: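 Sorting gates, low and high (top ~1%), were placed on anti-HA fluorescence to track expression and on streptavidin fluorescence to track reagent binding. A clone's polyreactivity label is taken from the gate it came out of. The reagent was 10% biotinylated, detergent-solubilized Sf9 membrane, applied for 1 hour at 4 °C to galactose-induced yeast display cells.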

| Sequence | polyreactivity (PSR sort gate) |
| --- | --- |
| QVQLVESAGGLVQAGGSLRLSCAASGSIFERNVIGWYRRAPGKERELVPRISTSGGSTTYYADSVKGRFTISRDTAKNTVYLQMNSLKPEDTAVYYCAAGRGYWWWYGYDYWGQGTQVTVSS | low polyreactivity |
| QVQLVESAGGLVQAGGSLRLSCAASGSIFGPYAMGWYRQAPGKERELVAVISSGDSTNYADSVKGRFTISRDNAKNTVYLQMNSLKPEDTAVYYCATRYLLYRGGHTLFYHFDYWGLGTQVTVSS | low polyreactivity |
| QVQLVESAGGLVQAGGSLRLSCAASGSIFGSYAMGGYRQAPGKERELVAAIYSSGGSTYYADSVKGRFTISRDNAKNTVYLQMNSLKPEDTAVYYCNKYVRYGDGYWGQGTQVTVSS | high polyreactivity |
| QVQLVESAGGLVQAGGSLRLSCAASGSIIYYNAMGWYRQAPGKERELVAAITGSGGSTYYADSVKGRFTISRDNAKNTVYLQMNSLKPEDTAVYYCAADYSLYGWWFRNDYWGQGTQVTVSS | low polyreactivity |
| QVQLVESAGGLVQAGGSLRLSCAASGSILPSNAMGWYRQATGKERELVAGLSERGSSTYYADSVKGRFTISRDNAKNTVYLQMNSLKPEDTAVYYCAADDVGRYWSSTHNWARGEYWGQGTHVTVSS | low polyreactivity |
| QVQLVESAGGLVQAGGSLRLSCAASGSNFKYYAMGWYRQAPGKERELVAAINGSGGSTYYADSVKGRFTISRDNAKNTVYLQMNSLKPEDTAVYYCARASDYNKVSKSQRMDYWGQGTQVTVSS | high polyreactivity |
| QVQLVESAGGLVQAGGSLRLSCAASGSTFAFYAMGWYRQAPGKERELVAVISLRGSRTYYADSVKGRFTISRDNAKNTVYLQMSSLKPEDTAVYYCATTGYRLRQATRYDYWGQGTQVTVSS | high polyreactivity |
| QVQLVESAGGLVQAGGSLRLSCAASGSTFDYYAMGWYRQAPGKERELVAAISRTGGRTYYADSVKGRFTISRDNAKNTVYLQMNSLKPEDTAVYYCATRNGRQYSVSYRYYYWGQGTQVTVSS | low polyreactivity |
| QVQLVESAGGLVQAGGSLRLSCAASGSTFTYYAMGWSRQAPGKESELVAAISSGASTYYADSVKGRFTFSRDNAKNTVYLQMNSLKPEDTAVYYCNAKKSIRPYRTGMDYWGQGTQVTVSS | high polyreactivity |
| QVQLVESAGGLVQAGGSLRLSCAASGSTFVWYAMGGYRQAPGKERELVDAINFGGTTYYADSVKGRFRISRYNAKNTVYLQLNSLKPEDTAVYYCATEYDYGSWFPDGWGIFDYWGQGTQVTVSS | low polyreactivity |
| QVQLVESAGGLVQAGGSLRLSCAASGYIYGYYVMGWNRQAPGKERELVAAISGRGGRTYYADSVKGRFTISRDNAKNTVYLQMNSLKPEDTAVYYCAAADLPGTMYYWGQGTQVTVSS | high polyreactivity |
| QVQLVESAGGLVQAGGSLRLSCAASRSIYGYYAMGWYRQEPGKERELVAAIRRSGGSTYYADSVKGRFTISRDNAKNTVYLHMNSLKPEDTAVYYCAARVSPYRGFYYWGLGTQVTVSS | high polyreactivity |
| QVQLVESAGGLVQAGGSLRLSCAATGFIFWGNAMGWDRQAPGKERELVAGIRSLGGTTSYADSVKGRFTISRDNAKNTVYLQMNSLKPEDTAVYYCAAKYSYYTYAGDGGLFSWSYGYWGQGTQVTVSS | low polyreactivity |
| QVQLVESAGGLVQAGGSLRLSCAPSGRIFPVNSMGSYRQAPGKERELVATMSSGDITNYADSVKGRFTISRDNATITVYLQMNCLKPEDNAVYYCARDSKRLARYYYWGQGTQVTVSS | low polyreactivity |
| QVQLVESAGGLVQAGGSLRLSCDASGLTYSYYAMGWYIQAPGKERELVAAISWSGGSTYYADSVNGRFTISRDNAKNTVYLQMNSLKPEDTAVYYCAKYPNRHYWYDYWGQGTQVTVSS | low polyreactivity |
| QVQLVESAGGLVQAGGSLRLSCSAYGIIFSRYAMGWYRQAHGKERELVAAITSGGSTSYADSVKGRFTISRDNAKNTVYLQMNSLKPADTAVYYCAAQFFYRKSGTWAVYRYNYWGQGTQVTVSS | high polyreactivity |
| QVQLVESAGGLVQAGGSLRLSSAASGLIFPLYEMGWYRQAPGKERELVAAINWRGGSTYYADSVKGRFTISRDNAKNTVYLQMNSLKPEDTAVYYCAAGYLHRDSYIYDYWGQGTQVTVSS | low polyreactivity |
| QVQLVESAGGLVQAGGSLRLSSGASGSTFNTYAMGWYRQAPGKERELVAAITYNGGSTYYADSVKGRFTISRDNAKNTVYLQMNSLKPEDTAVYYCAAPRSRSRTSRFEYWGQGTQVTVSS | high polyreactivity |
| QVQLVESAGGLVQAGGSLRLTCAASGRTFHHNAMGWYRQPPGKERELFAAITSVGNTYADSVKGRFTISRDNAKNTVYLLMNSMKPEDTAVYYCNARIYDSRFYWSPATSRFEYWGQGTQVTLSS | low polyreactivity |
| QVQLVESAGGLVQAGGSLSLSCAASGSIFIWYAMGWDRQAPGKERELVAAIRSGGSTYYADSVKGRFTISRDNAKNTVYLQMNSLKPEYTAVYYCAKVLTWRGYRYNYWGQGTQVTVSS | low polyreactivity |

| Sequence | polyreactivity (PSR sort gate) |
| --- | --- |
| QVQLVESAGGLVQAGGSLSLSCAASGSILSRYAMGWYRQAPGKERELVAAINWSGSSTYYADSVKGRFTISRDNAKNTVYLQMNSLKPEDTAVYYCAKLYVTPRRLPYDYWGQGTQVPVSS | high polyreactivity |
| QVQLVESAGGLVQAGGSLSLSCAASGSMFNKYAMGWYRQAPGKERELVAAISVSGTRTYYADSVKGRFTISRDNAKNTVYLQMNSLKPEDTAVYYCATKFFRTAYEYWGQGTQVTVSS | high polyreactivity |
| QVQLVESAGGLVQAGGSLSLSCDASGNTFLGYAMGWYRQAPGKERELVAAISKRGGSTYYADSVKGRFTISRDNAKNTVYLQMNSLQPEDTAVYYCNAVPPRDNGSWGQGTQVTVSS | high polyreactivity |
| QVQLVESAGGLVQAGGSVRLSCAASGRIFGSYAMGWYRQAAGKERELVAAINWRGGSTFYADSVKGRFTISRDNAKNTVYLQMNSLKPEDTAVYYSARRGYLQSGDYWGHGTQVTVSS | low polyreactivity |
| QVQLVESAGGLVQAGGTLRLSCDASGFIIYYYAMGWYRQAPGKERELVAAISRGGSTYYADSVKGRFTISRDNAKNTGYLQMISLKPEDTAVYYCASEDFPVYSYYYWGQGSQVTVSS | high polyreactivity |
| QVQLVESAGGLVQEGGSLRLSCAASVIFWANVMGWYRQAPGKEWELVDAITSGGSTNYADSVKGRFTISRDNAKNTVYLQMNSLKPEDTAVYYCIKPWYSYRYGGVGYGYWGQGTQVTVSS | low polyreactivity |
| QVQLVESAGRLVQAGGSLRLSCAASGSTYSSNAMGGYRQEPGKERELVAAITTSGGSTYYADSVKGRFTISRDNAKNTVYLQMNSLIPADTAVYYCAADLVHAYQWSIFLYGYWGLGTQVTVSS | low polyreactivity |
| QVQLVESARGIVQAGGSLRLSSAASGFIFYSSAMGGYRQAPGYERELVAGITSGGITSYADSVKGRFTISRDNAKNTVYLQMNSLKPEYTAVYYCAAVVVYQNYNYYYWGQGTQVTVSS | high polyreactivity |
| QVQLVESAVCLVQAGVSLRLSCAASGIIFDYNAMGWYRQAPGKDREVVAAITSTDNTNYADSVKGRFTISRDNAKNTVYLQMNSLKPEDTAVYYCNTDYWLSVVYAMDYWGQGTQVTVSS | low polyreactivity |
| QVQLVESCGGIDQAGGSLRLTCAATGRIFNSYPMGWYRQAPGKERELVAAISRNGGITYYADSVKARFTISRDNAKITVYLQMNILKQEDTAVYYCNADSSRRLYSSEYWGEGTQVTVSS | high polyreactivity |
| QVQLVESCGGLVHAGGSLRLSCAATGFTIAENVKGWYRQSPGKERELVAAIDYSDGITYYADSVKGRFTISRDNAKNTVYLQMNSLKPEDTAVYYCATQYLIQTKDYSWGQGTQVTVSS | high polyreactivity |
| QVQLVESCGGLVQAGCSLRLSCAASGSIVAWYTMGWYRQAPGKERELVAGITASGGSTYYADSVKGRFTISRDNAKNTVYLQMNILKPEDTAVYYCAATNPFRYRRGGYWGQGTQVTVSS | high polyreactivity |
| QVQLVESCGGLVQAGGSIRLRCAATGSIIYVNPMGWYRQAPWKEREMVAAITGGASTNYADSVKGRFTISRDNAKNTVYLQMNLLKPEDTAVYYCAVDPVGHATRVWTYQYDYWGQGNQVTVSS | low polyreactivity |
| QVQLVESCGGLVQAGGSLRLSCAASGFIFQPYAMGWYRQAPGTERELVAAITSRGGRTYYADSVKGRFTISRDNAKNTVYLQMNSLKPEDTAVYSCNAVIYACEYYYWGQGTQVTVSS | low polyreactivity |
| QVQLVESCGGLVQAGGSLRLSCAASGGIFGYYAMGWYRQAPGKEREFVAAITLSGGRSYYADSVKGRFTISRDNAKNTVYLQMNSLKPEDTAVYYCNAYPYYLVRNMDSWGQGTQVTVSS | high polyreactivity |
| QVQLVESCGGLVQAGGSLRLSCAASGRTFRDNAMGWYRQAPGKERELVAAIDIDSSTYYADSVEGRFTISRDNAKNTVYLQMNSLKPEDTAVYYCAAESYHDGKGFPDYEYWGQGTQVTVSS | low polyreactivity |
| QVQLVESCGGLVQAGGSLRLSCAASGSIFPPYAMGWYRQAPGKERELVATITIRGGSTYYADSVKGRFTISRDNAKNTVYLQMNSLKPEDTAVYYCAADYTKYYRRYYYWGQGTQVTVSS | high polyreactivity |
| QVQLVESCGGLVQAGGSLRLSCAASGSIFYGNVMGWYRQAPGKERELVAAISSSGGSTYYADSVKGRFTISRDNEKNTVYLQMNRLKPEDSAVYYCAAYWWSRVVRGSRYDYWGQGTHVTVSS | low polyreactivity |
| QVQLVESCGGLVQAGGSLRLSCAASGSTFAVNVMGWYRQAPGKERELDATITYRDGRTYYADSVKGRFTISRDNAKNTVYVQMNSLKPEVTALYYCAADWYTTYDYWGQGTQVTVSS | low polyreactivity |
| QVQLVESCGGLVQAGGSLRLSCAASGSTFDGYAMGWYRQAPVKERELVAAISASGGSTYYADSVKGRFTISRDNAKNTVYLQMNSLKPEDTAVYYCNSEPFDLWAFYYCYVYGYYHWGQGTQVTVSS | high polyreactivity |
